Assays:
ER-α [1] = target: T1, ER-α (UniProt P03372 297-554, limits assumed); assay: Thermofluor thermal shift; ER-α 8 µM with 2-methoxy-E2 20 µM; SRC-3 11 µM
T1 construct: also called estrogen receptor alpha
T1 sequence (looked up): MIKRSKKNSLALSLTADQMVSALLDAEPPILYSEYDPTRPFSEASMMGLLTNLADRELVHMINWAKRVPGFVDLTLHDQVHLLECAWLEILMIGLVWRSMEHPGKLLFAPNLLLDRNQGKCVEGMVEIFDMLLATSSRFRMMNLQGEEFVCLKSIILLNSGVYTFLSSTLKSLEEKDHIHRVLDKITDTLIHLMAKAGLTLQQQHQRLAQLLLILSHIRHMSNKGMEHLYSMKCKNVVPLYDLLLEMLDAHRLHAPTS

ER-β [2] = target: T2, ER-β (UniProt Q92731 256-505, limits assumed); assay: Thermofluor thermal shift; ER-β 8 µM with 17-α-ethylene-E2 20 µM; SRC-3 11 µM
T2 construct: also called estrogen receptor beta

ER-α [3] = target: T1, ER-α; assay: Thermofluor thermal shift; ER-α 8 µM with 4-OH-tamoxifen 20 µM; SRC-3 11 µM
ER-β [4] = target: T2, ER-β; assay: Thermofluor thermal shift; ER-β 8 µM with tamoxifen 20 µM; SRC-3 11 µM
ER-α [5] = target: T1, ER-α; assay: Thermofluor thermal shift; ER-α 8 µM, no ligand; SRC-3 11 µM
ER-β [6] = target: T2, ER-β; assay: Thermofluor thermal shift; ER-β 8 µM, no ligand; SRC-3 11 µM
ER-α [7] = target: T1, ER-α; assay: Thermofluor thermal shift; ER-α 8 µM with ICI-182780 20 µM; SRC-3 11 µM
ER-β [8] = target: T2, ER-β; assay: Thermofluor thermal shift; ER-β 8 µM with estradiol 20 µM; SRC-3 11 µM
ER-α [9] = target: T1, ER-α; assay: Thermofluor thermal shift; ER-α 8 µM with 17-α-ethylene-E2 20 µM; SRC-3 11 µM
ER-α [10] = target: T1, ER-α; assay: Thermofluor thermal shift; ER-α 8 µM with estradiol 20 µM; SRC-3 11 µM
ER-β [11] = target: T2, ER-β; assay: Thermofluor thermal shift; ER-β 8 µM with 2-methoxy-E2 20 µM; SRC-3 11 µM
ER-β [12] = target: T2, ER-β; assay: Thermofluor thermal shift; ER-β 8 µM with 4-OH-tamoxifen 20 µM; SRC-3 11 µM
ER-α [13] = target: T1, ER-α; assay: Thermofluor thermal shift; ER-α 8 µM with tamoxifen 20 µM; SRC-3 11 µM
ER-β [14] = target: T2, ER-β; assay: Thermofluor thermal shift; ER-β 8 µM with estrone 20 µM; SRC-3 11 µM
ER-α [15] = target: T1, ER-α; assay: Thermofluor thermal shift; ER-α 8 µM with estrone 20 µM; SRC-3 11 µM
ER-β [16] = target: T2, ER-β; assay: Thermofluor thermal shift; ER-β 8 µM with ICI-182780 20 µM; SRC-3 11 µM

T2 sequence (Q92731 256-505 limits assumed): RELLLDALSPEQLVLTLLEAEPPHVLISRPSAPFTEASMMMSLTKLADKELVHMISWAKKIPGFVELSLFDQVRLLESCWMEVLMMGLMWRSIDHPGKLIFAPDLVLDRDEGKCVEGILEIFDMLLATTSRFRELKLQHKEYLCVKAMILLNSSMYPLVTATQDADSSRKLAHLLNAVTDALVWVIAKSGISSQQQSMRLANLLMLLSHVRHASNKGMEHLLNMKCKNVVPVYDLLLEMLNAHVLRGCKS

**Q.** What does the source list for “co-activator protein SRC-3 (from UniProt Q9Y6Q9 627-829)”?
**A.** change in Tm stabilization from the receptor-ligand ΔTm (ER-α [1]): 5.3; change in Tm stabilization from the receptor-ligand ΔTm (ER-β [2]): 2.6; change in Tm stabilization from the receptor-ligand ΔTm (ER-α [3]): 0.2; change in Tm stabilization from the receptor-ligand ΔTm (ER-β [4]): 1.3; change in Tm stabilization from the receptor-ligand ΔTm (ER-α [5]): 1.5; change in Tm stabilization from the receptor-ligand ΔTm (ER-β [6]): 0.9; change in Tm stabilization from the receptor-ligand ΔTm (ER-α [7]): 0.5 °C; change in Tm stabilization from the receptor-ligand ΔTm (ER-β [8]): 1.7; change in Tm stabilization from the receptor-ligand ΔTm (ER-α [9]): 4.5 °C; change in Tm stabilization from the receptor-ligand ΔTm (ER-α [10]): 3.8 °C; change in Tm stabilization from the receptor-ligand ΔTm (ER-β [11]): 2.5 °C; change in Tm stabilization from the receptor-ligand ΔTm (ER-β [12]): 1.2 °C; change in Tm stabilization from the receptor-ligand ΔTm (ER-α [13]): 1.1 °C; change in Tm stabilization from the receptor-ligand ΔTm (ER-β [14]): 1.6 °C; change in Tm stabilization from the receptor-ligand ΔTm (ER-α [15]): 3.5 °C; change in Tm stabilization from the receptor-ligand ΔTm (ER-β [16]): 0.9 °C

Reference: patent publication US20060099643A1, “Method for determining the regulation of xenobiotic removal” (priority 2002, published 2006)
